Laboratory results from the NTF2 design screens of Basanta et al. (2020).

Experiment: protease stability score; higher = more stable; yeast display proteolysis, trypsin and chymotrypsin;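 also: relative to predicted unfolded state with 0 unfolded-like and 1 meaning tenfold more protease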

| Sequence | protease stability score |
| --- | --- |
| SEEEHMIELIVKWYSRALETGDEEELAEMLDPNTRLDVDGKDIHGRENILKRRKKHLDHLGHERIEIHFDVSHIDYIGDKVIIHVKLILHYNGREIHLDVKMLIVKINGRWRFRHFESK | 1.93 |
| SEEEHMLEAFFEDVLQLVMTGDEHRLKHLFDPNVRVETEHEHFHGRELFLQRMLEIRIHDFHIHDFEVQGDKAHVDGRVEGTIDGRTNHWTFTLILEKIDGRWLANKVTWH | 1.55 |
| SEEEHRMREILDLLTESFHTGDERIHLEYADPHARFDIGDKHIHGRELFTKRWKEWLERFKNITLQLRIDDVSIIDGVFVVEGTLTIRINGVEIERDTHIFLYIVDGRVSTMKRTIH | -0.116 |
| SEEEHRSELAVELVHYTLMTGDFHLIERLVDPNVKLRILIGDKEYDLHGWKEVYRFMVTFGFDHMELKTFDLQGDKLNIDLRLHVDGRNVETSIVALKVNGKWINESEHYRIK | 0.464 |
| SEEEHRVKELARLFVEVLLTGDWKTLLELMDPNTRLRINGKDFIGMEDAVKAWRDYLDEIRHDDIKLTRIENNEDHSHLDGRQHGIYNGQRTDTILNVDIHMVNGKIKEVHIEIE | 1.01 |
| SEEEHRVKELSELMLHWFKTGDEETMDHLMDPDARFELQVGDKEVHSHGWESVHKVLRRTLFWLGADHYNDKDFKHQGDKSKIDMTVHVGDKTVEVTLHLKIVDGRLKFLEIRVK | 1.16 |
| SEEEHTSEEALRAFVFLELTGDEKSLIELLDPRTRIHAENHEVVGRERATEEWRRWLEFYKNIRVHDVEIEEIHLIDGRIKLIMRRDGVINGVKRETHIRMITNKVNGRWLVHSIIIR | 1.37 |
| SEEEHVAEELIKQFLRKFSTGDEDSMRNLFDPNVKIEQGEFDIHGREEETRYFRELRVHIEDSTAREIRVQGDKVDIDLEVVGIVHFNGKTVRRIIRTRVHLLKVDGQWHIKSIQIL | 1.24 |
| SEEEHVAKKLSDLILHAWRTGDEDQLSRLMDPHVRMIIGDKHLHGREEVSRWLHDWRRQVDHVEFHVKRFHVQGNKYTNDGHFVVHQGDKETRTDVEIILIVVDGKIHEIRIIIR | 2.17 |
| SEEEHVLEFIVKLFLEAWLTGDEDIIDWLVDPHTRLHVNGVDLHGREEVSHFLAHIRVEQLHIDDERITNINGVLHVDIKTEERFDVNGRVTRTKSELHIFIRKVDGRWFIQVFKIVYH | 0.332 |
| SEEEHVMVEIVRKLTEAKHTGDFKTEHELMDPHARIDINGVEIHGMEEWRHLYEEWRFIVHRTHVRHVHVQGDKVDLKGEFRGVIDYDGREIEYNTKVNLHLHKVDGRWQLHDVKTT | 0.552 |
| SEEEHVTDLALELWIRTHNTGNWHLLKRLLDPNTRVQVGNKIYHGMELISKEIFRKLLEMGFETHIEVEDSEYFEGHVRFRITIRLVVGDKEIILDTELLMIKFNGRWFITEIRIE | 0.686 |
| SEEEHWLDDAFRWLIELIFTGDETEIEKMIDPNVKIHIGEKNNHGREIMIEWLERLGVKHVREMRIRHVHRQGNKLIVHGEIHREVDGVKIETESLIVAKKVDGQWHLQSVRVN | 2.37 |
| SEEEHWVELLIELLERTQKTGDEHSFERLMDPNVRIIIGDKVMHGREEASRWMHEARVHETRIEHIRIINGRAHIDSRERGEINGREINLRVEIISSKVDGRWVITEVRVE | 0.943 |
| SEEEHWVREFEEAVRHDAETGDENSISEFLDPNVRVDINGKELHGRELMDEMIRHFLERYDHIRIHIHDNRLIDGRVEMDIRLYFIQGEKHMEIDSERFIFKVDGKWRLEEVRIK | 0.3 |
| SEEEHYMLKVAKLAVRNYFTGNEHVLDELFDPHTRQEVNGVENHGRETVRDFLREHLKHMRFHDFKIRDFKWQGDKAHTETETDVEIDGQRIPLRMEIIIIIIDGVPKSISLRLG | 1.05 |
| SEEEHYRREMIHFSREVWETGDWDSLMNLADPNVRIEAENHDLHGREFFVKLMEEISRKFKNVRIIIRHLHIQGDKVEMHSEIIFNGRSVHVTFFALKVNGRWIFKEMVFI | 0.925 |
| SEEEIMTKLAEKILKMHWDTGDERIRKELADPHVRIDQGDFNLHGWEVLHLTLNLLGVTKFRLHILEIHDVSMQGDKIEMDIEVHMHVNGRKISFRVQVHSIKIDGKWKQHSLIIH | 0.153 |
| SEEEKAFKESYDVWIEALKTGNEEESREMFDPTPLQVVNGQELHGRDHIEQEVSEWRIDHVDIDELRLQGDKAILHGRVSGHINGKRVKFEEKLVMHKIDGRWFIRSVIVR | 0.333 |
| SEEEKAIIDLFKLWIHAFVTGDEEKLSELMDPRVRLTVGDKHLHGMEIVVEWYRRLRDKIKNLQFRSFEIEDFRIVNGRVELEAVIHIHFNGQMRTIEVRFILEKVDGRWFLKSVEEK | 2.57 |
| SEEEKDARDFIDYLVHHLETGDEEEFEKLIDPHTRLQVDGRHFHGREAYEWMLYQFKNVKIKHLTIRHIEIQGDKVHITSTWNLIVDGQEKELRTHIILDKVNGRWMIRKMRIQ | 1.8 |
| SEEEKDATDMLEHYIRSLLTGDEHLWRELADPNVKTEIDGVEMIGRESWRILVERLGVDHSDVEDIDFRFYDGRLNVRVKTRHHVNGRTFETELIVIIEKINGRWRVTQIEIRIK | 2.5 |
| SEEEKDIKNAFRLLVKIIRTGDWEDHHKQMDPDVLIIVGDKEHHGWEEASRFMKEHLERVDHEDLKLRRVHIQGEKMELDGELFVNVDGRLIRMRVIFFLNKVNGRWVIHSLEIR | 2.28 |
| SEEEKDNKLAIHLTMEILRTGDEEHSKKMIDPDARHQQGDKELHGMEEVSTEIMEIWRRYKGVKFEVKRVHMQGEFIKIKVDLHVNGQTLDVIIVLYKVDGRWTIHSIHVH | 1.48 |
| SEEEKEAEDILRMVIHVLRTGDWHTLKNMLDPHAKNDVNGREQVGMRDWIETFTRIHRELGISNIDFKLHDIRITEHHVLVDGILIFNGKEYRLNLIITKINGRWVNEHIHLH | 1.08 |

| Sequence | protease stability score |
| --- | --- |
| SEEEKEAEEAMKRSLRSLETGDEELLDEMADPDVRLHVGEFQLIGRESFRKHQRRLTKRFKNMRFHIHRMEVYGEKLSIFGRFHWDGVDTETEIIEVKINGRWFLREVHIR | 0.639 |
| SEEEKEAEEFLRKHLHDRLTGDEDWVLRNIDPNARFDINGREIIGMEEWRQWLHEARVRVDDTQIDEKRSVGNKLDVRSTMHVTIEFDGVRVKHILDVELIMTKVDGKWKVKEVRVR | 1.61 |
| SEEEKEAERMLRLWIETVKTGNEEVWRELFDPNARMLIGDKESVGREQIEELVRSVYDRLGAKVIHDFYIDRIHVIGDKVEIDSRVDSIINGRRYHLETHIIFVKINGKWVLKSVELR | 2.06 |
| SEEEKEAHDWMEVWLELFHTGDEDMLEHMADPHTRIHVDGRKFHGRENYVRLVRHMRVHHFIERRVRIINGRIHIEGEARVNINGQEIDNHVQIHLNLVDGRLKTEHIKVK | 0.927 |
| SEEEKEAKDALEKLWHYWHTGDEHELVRLADPTMRHIINGRHFHGREFFSELLRRLGFKHIIYHFEDMDVQGDKVHIHGHIESEFDGRRHHMNTHLIILKVNGKWIYESIKFD | 1.32 |
| SEEEKEAQHLLELENDARRTGDEDFSREMVDPNVKIDINGRDLHGWDVAEELMRQADHVHHEHIRQVEVQGDKLIVDMEINGHINGKSFDIKIHLFIWKYNGKWFVRKIDVK | 1.44 |
| SEEEKEARESIHRFEAALKTGNEESLFELLDPHVRIDVNGQELHGWKEWKHIVHENKKRVKGARFRIHHIEIINGRIHLDGEVSINGKDIRTEYIIEKIDGVWRLTEVIIR | 1.28 |
| SEEEKEARRILTHFREVLHTGDEHALLELMDPNVRFILHDENHTVENHGMENMVTSLRKFGFDVIKRVHDKEHHLQGDKIKFHVETLGEINGREFEVEVQIRLYVVDGVLKWSEIIIH | 1.1 |
| SEEEKEDWEWMEIFYDALHTGDEKLIRDNADPNVKFRQGDYHSVGREEYIRKIDELRRRLGITKIRLEIDHVEVINGRSNVDTTIHVNGREIRSTLHVQVVNGRIKEIEIHLR | 1.04 |
| SEEEKEIKEILERLIRSLLTGDEQELAKMADPNVRFNFQVGNKKYTLHGREHLRRHITFVFEYLGFDHITIQDSHYQGDKMTVHVELRVNGRRHEIREHWLVVDGRIKEVHVEIH | 2.32 |
| SEEEKELEEALKIQEEFWRTGDEHSLRELADPHARVHIDGRDLHGREFWSMLSNQLRIEHIEVKSVELVDGRLEADVHVTGRYNGRDVKTRMRLEIVKINGVWYLESTEIN | 0.407 |
| SEEEKELKTLVEELWHAWETGDEDFIHKYMDPHARLHIGDKDHHGREEIRESLRQHREHLRIEHVHRHHVKLVDGRIETHGHILGHIGDKRFETEMIIIIIVINGRIRSMKFDYR | 1.03 |
| SEEEKELREIMKVFKDAFLTGNEDLLRQLMDPHVRFHIGDKKNHGWEALHEYLLRIDHLDDLHSHLTEVHIQGDKVKIDGHLHMVERYGDFRFEREIRVHIVIEKINGRWIIEEVHFI | 1.35 |
| SEEEKELRFVYDLLWHLLKTGDEEITRELADPRVRIDIDGKEWHGRDELARLFDRLHRELGYTVHRTRHHRHDFINGQWHEDGETKGVIGDKEFETHVKIIIIVINGRLKEVIFHYH | 1.16 |
| SEEEKEMEDFLREFEKNLRTGDEEQIRRLADPHVRMEVNGVEHIGRKHVSRFWYHLVRRADHIHIEVEDMHLVGEKMELIGILRLRVNGRDLTHHHRLIVDKIDGRWFLRESRIH | 1.73 |
| SEEEKEMHHIARLFFELWLTGDEETHQRLLDPDAKHSFNGVILHGRDEMIRYWRQFLEEIRLRSIEIRRITSVGDKVHVDSHVDGEVNGRRIVTREYIELEVVDGRWKRVKLHIK | 1.38 |
| SEEEKESEDSMRILEHYFHTGNEESLLKLADPHVRSEINGKIHHGMDLHNEIWKHFVQQFKGARPTSLNFKDVEIQGNKAEFHIELVLTIGNYSIHLEMHIFNEKVDGRWLIRSTYIR | 1.08 |
| SEEEKETEHVLRLFLEIFHTGDWKTLHELFDPHVRLNVGDKHWIGRENVVEQIRHFLERFKNARFHIHRIHIVGDFNDVRTEITINGRTHDTRLWLQVIDGRIESMEIKMN | 2.44 |
| SEEEKETRKNLHEFLESIITGDEDHLVNMMDPHARIEVGDWELVGRHKFHEFASKVKNLKLHIRNTEVYGDKVHIDSEINFNGQRRDMVVHAEKINGKWILKHTRYQ | 1.17 |
| SEEEKEVKEHLKIIHDVIRTGNEHDIKELMDPNMLLVFNGQKHIGRDHWEELLKKLGADHVHLHIRSFTIINGQARLETEVEWRAENRTIRRETEIVTDKINGRWIIHTIIFR | 1.5 |
| SEEEKEVQEYLERSIKDIRTGDEDELRRQLDPNYKLDVNGQKHIGMELWLKILSREVKEIRIDHVERHIEVINGRIDVKGELILNFNGREFRHHFEIHATKFNGRWVVDSMRVE | 1.15 |
| SEEEKEYEHWMRLYLHWRLTGDEEAEKRNADPNTRVEFNGKELHGMEVVSEFIIKLRNEMRFEFLEIDDMRVIDGVSHFDVTVDGVIDGKRVRLTLHIILIVINGKIHHIQEEWK | 1.43 |
| SEEEKFAERFIRLFMEALETGDERVLEELLDPNVRVEVNGREYHGRDVFTRLVREWRIDHLDTHTHRIDSQGDKVNADTRVRFHHKVGDKVHDTEMHVILHSEKFNGRWHMTEIIIR | 1.34 |
| SEEEKHAHEMVRIFLHILKTGDWRTLEKLLDPDVRMSLDINGREHHQVGREEVLKAFIRFLDEWRMDDLHLHDVTIQGDKAYLETEVHITFNGQRHHTHLEIEIYVINGKIKSIRLTIR | 2.36 |
| SEEEKHFEDALERWIRTTDTGDETKLIELMDPHVKVDINGQEFHGWKIVFRFMHHLIRRIDHIIIEVKHLRVYDGRVELDGIIRVRFDGRQMEYNSRFIALKFNGVWLLHSMHFH | 1.87 |
